Sequences and labels used below:
T1: human CDH17, full length, expressed on cells (HEK293-hCDH17); AsPC-1, HCT-8, AGS, LoVo, KATO III, HT-29 tumor … (human, UniProt Q12864 23-832)
T1 construct: also called human CDH17 expressed on tumor cells
T1 sequence: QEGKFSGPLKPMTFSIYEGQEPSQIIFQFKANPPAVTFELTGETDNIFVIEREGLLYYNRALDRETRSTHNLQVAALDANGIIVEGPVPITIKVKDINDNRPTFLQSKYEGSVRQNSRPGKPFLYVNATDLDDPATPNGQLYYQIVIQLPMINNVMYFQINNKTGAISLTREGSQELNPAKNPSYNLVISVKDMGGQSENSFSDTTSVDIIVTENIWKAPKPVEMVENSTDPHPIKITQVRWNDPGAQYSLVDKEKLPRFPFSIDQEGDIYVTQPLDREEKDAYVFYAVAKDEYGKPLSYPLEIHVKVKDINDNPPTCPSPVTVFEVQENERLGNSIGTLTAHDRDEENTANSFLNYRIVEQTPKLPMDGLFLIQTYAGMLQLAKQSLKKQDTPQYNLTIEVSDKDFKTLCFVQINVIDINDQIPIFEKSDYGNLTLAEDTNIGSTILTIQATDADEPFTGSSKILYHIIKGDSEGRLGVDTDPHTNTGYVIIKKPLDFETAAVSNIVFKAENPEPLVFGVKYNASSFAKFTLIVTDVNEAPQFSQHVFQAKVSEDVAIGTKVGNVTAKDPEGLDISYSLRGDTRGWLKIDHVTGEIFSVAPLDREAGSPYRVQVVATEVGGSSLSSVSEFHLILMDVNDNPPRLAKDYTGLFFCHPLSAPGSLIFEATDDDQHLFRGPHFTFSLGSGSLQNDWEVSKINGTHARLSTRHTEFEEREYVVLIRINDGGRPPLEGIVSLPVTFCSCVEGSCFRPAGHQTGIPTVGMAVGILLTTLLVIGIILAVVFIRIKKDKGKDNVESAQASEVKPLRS

T2: human CDH16 protein (hCDH16-his, Novoprotein, Cat. No. CJ16) (human, UniProt O75309 19-786)
T2 construct: Bought; also called human CDH16-his
T2 sequence (looked up): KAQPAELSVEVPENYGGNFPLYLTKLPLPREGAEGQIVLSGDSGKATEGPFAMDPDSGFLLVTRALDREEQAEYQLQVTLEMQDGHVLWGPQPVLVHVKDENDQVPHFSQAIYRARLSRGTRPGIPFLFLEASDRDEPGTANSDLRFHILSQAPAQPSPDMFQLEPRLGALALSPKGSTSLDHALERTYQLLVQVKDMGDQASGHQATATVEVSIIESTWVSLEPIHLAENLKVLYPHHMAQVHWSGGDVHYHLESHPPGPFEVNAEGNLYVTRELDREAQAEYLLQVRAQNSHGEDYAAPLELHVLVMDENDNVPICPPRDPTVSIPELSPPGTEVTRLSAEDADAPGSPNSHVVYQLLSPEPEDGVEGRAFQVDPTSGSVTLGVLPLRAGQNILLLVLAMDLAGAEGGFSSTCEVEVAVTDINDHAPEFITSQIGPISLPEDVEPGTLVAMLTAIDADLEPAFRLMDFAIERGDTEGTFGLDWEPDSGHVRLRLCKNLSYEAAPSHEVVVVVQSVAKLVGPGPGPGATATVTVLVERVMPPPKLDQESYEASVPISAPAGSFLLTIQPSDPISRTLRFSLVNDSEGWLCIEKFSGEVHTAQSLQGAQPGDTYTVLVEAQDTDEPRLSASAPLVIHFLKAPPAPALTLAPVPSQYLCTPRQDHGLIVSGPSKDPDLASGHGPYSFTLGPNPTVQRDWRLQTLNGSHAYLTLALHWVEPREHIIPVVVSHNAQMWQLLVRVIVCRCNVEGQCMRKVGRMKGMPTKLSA

T3: hCDH17-his (full length extracellular domain of human CDH17, Q23-M787, his tag at the C-terminal) (human, UniProt Q12864 23-787)
T3 construct: Limits of the construct (UniProt Q12864, Q23-M787, C-terminal his tag); also called human CDH17-his protein; human CDH17 protein
T3 sequence: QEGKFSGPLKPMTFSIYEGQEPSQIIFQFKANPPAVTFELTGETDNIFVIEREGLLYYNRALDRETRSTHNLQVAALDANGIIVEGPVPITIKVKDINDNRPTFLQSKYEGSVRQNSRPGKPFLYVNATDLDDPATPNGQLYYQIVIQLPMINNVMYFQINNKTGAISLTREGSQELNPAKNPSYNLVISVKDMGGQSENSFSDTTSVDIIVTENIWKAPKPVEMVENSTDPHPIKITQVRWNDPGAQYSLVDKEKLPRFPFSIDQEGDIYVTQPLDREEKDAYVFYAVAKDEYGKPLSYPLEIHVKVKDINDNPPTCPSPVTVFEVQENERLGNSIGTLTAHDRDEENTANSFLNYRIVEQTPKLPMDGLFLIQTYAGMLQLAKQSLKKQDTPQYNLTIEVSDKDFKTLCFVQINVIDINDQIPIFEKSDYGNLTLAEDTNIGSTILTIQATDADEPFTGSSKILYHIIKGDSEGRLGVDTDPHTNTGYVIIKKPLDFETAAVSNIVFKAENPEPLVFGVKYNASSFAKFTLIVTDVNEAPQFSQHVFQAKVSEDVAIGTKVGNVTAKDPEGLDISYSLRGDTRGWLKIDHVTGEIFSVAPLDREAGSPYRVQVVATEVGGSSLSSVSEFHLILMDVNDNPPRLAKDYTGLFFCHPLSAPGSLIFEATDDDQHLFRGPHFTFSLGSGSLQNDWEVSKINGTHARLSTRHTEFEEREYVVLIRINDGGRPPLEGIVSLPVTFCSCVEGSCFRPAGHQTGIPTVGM

B1: 143H10E4-z6 (antibody, V domains shown)
VH: QVQLVQSGAEVKKPGSSVKVSCKASGSTFTDHTIHWVRQAPGQGLEWIGYIYPVYGYTQNNEKFKGRATITADKSTSTAYMELSSLRSEDTAVYYCARSRDSNPYYFDYWGQGTTVTVSS
VL: EIVLTQSPDFQSVTPKEKVTITCTVSSSISSSNLHWYQQKPDQSPKPWIYGTSNLASGVPSRFSGSGSGTDYSLTINSLEAEDAATYYCQQWSSYPFTFGQGTKLEIK
notes: Humanized, human IgG1 constant region; also called 143H10E4 HU-VH1-1 / HU-VL1-3
B2: 143H10E4-z3 (antibody, V domains shown)
VH: B1 VH with I48M, A68V
VL: B1 VL
notes: Humanized, human IgG1 constant region; also called 143H10E4 HU-VH1-0 / HU-VL1-3
B3: 143H10E4-z9 (antibody, V domains shown)
VH: B1 VH with S84N
VL: B1 VL
notes: Humanized, human IgG1 constant region; also called 143H10E4 HU-VH1-2 / HU-VL1-3
B4: 29D2D7-z19p1 (antibody, V domains shown)
VH: QVQLVQSGAEVKKPGASVKVSCKASGYTFTDYDMHWVKQAPGQGLEWIGGFDPESAGTVYNLRFKDKATLTADKSTSTAYMELRSLRSEDTAVYYCARKGYYSVSSPFTYWGQGTLVTVSS
VL: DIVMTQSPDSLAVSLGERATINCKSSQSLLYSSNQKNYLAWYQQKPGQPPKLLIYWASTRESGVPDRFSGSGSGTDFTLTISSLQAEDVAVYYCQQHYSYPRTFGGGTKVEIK
notes: PTM-removed variant of 29D2D7-z19 (VL CDR3 cysteine replaced)
B5: 29D2D7-z19p2 (antibody, V domains shown)
VH: B4 VH
VL: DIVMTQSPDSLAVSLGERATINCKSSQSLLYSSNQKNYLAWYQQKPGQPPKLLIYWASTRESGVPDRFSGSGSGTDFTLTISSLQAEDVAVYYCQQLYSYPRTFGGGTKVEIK
notes: PTM-removed variant of 29D2D7-z19; VH is that of 29D2D7-z19
B6: 67A11B11 chimeric mAb (antibody, V domains shown)
VH: EIQLQQSGPELVKPGASVKVSCKASGYAFTTYNMYWVKQSHGQSLEWIGYIDPYNGVTIYNQKFKGTATLTVDKSSSTAYMHLNSLSSEDSAVYYCTITAATLDAMDYWGQGTSVTVSS
VL: DIVMTQSHKFMSTSVGDRVSITCKASQNVATAVAWYQQKPGQSPKVLIYWTSTRHNGVPDRFTGSGSGTDFTLTISNVQSEDLADYFCQQYNSHPLTFGAGTRLELK
notes: Mouse variable regions fused to human IgG1 constant region
B7: 95F2C2F12 chimeric mAb (antibody, V domains shown)
VH: QVQLQQSGAELMKPGASVKLSCKATGYTFTGYWIEWIKQRPGHGLEWIGEILPGSGSTNYNEKFKGKATFTADTSSNTAYMELSSLTTEDSAIYYCARAGYNNWGQGTTLTVSS
VL: DIQMTQSPSSLSASLGERVSLTCRASQDIGRSVNWLQQEPDGTIKRLIYATSSLESGVPKRFSGSRSGSDYFLTISSLESEDFVDYYCLQYASSPLTFGAGTKLELK
notes: as for B6
B8: 103G6G1 chimeric mAb (antibody, V domains shown)
VH: EVKLVESEGGLVQPGSSMKLSCTASGFTFSDFYMAWVRQVPEKGLEWVANINYDSTITYYLDSLKSRFIISRDNAENILYLQMSSLKSEDTATYYCARLLYYYGSLYFDVWGTGTTVTVSS
VL: DIQMTQSPASLSASVGETVTITCRASENIYSYLAWYQQKQGKSPQLLVYDAKTLAEGVPSRFSGSGSGTQFSLKINSLQPEDFGSYYCQHHYGIPITFGAGTNLELK
notes: as for B6
B9: 69E3H11 chimeric mAb (antibody, V domains shown)
VH: QVQLQQPGAELVKPGASVKLSCKASGYTFTTYWMHWVKQRPGQGLEWIGEIDPSDSYANYNQKFKGKATLTVDKSSSTAYMQLSSLTSEDSAVYYCALYYGYGDWGQGTTLTVSS
VL: EIVLTQSPTTMAASPGEKIIITCSVSSSISSIHLHWYQQKPGFSPKLLIYRTSNLASGVPTRFSGSGSGTSYSLTIGTMEAEDVATYYCQQGSNLPLTFGAGTRLELK
notes: as for B6
B10: 61C7F12 chimeric mAb (antibody, V domains shown)
VH: EVQLVESGGGLVKPGGSLKLSCAASGFTFSSYAMSWVRQTPEKRLEWVATINIGGSYTYYPDSVKGRFTISRDNAKNTLYLQMSSLRSEDTAMYYCARQEGRYWYFDVWGAGTTVTVSS
VL: QIVLTQSPAIMSASLGERVTMTCTASSSVSSSYLHWYQQKPGSSPKLWIYSTSNLASGVPARFSGSGSGTSYSLTISSMEAEDAATYYCHQFHRSPYTFGGGTKLEIK
notes: as for B6
B11: 29H8D3 chimeric mAb (antibody, V domains shown)
VH: QVQLQQSDAELVKPGASVKISCKVSGYTFTDHTIHWMKQRPEQGLEWIGYIYPRDGYTKYNEKFKDKATLTADKSSSTAYIQLNTLTSEDSAVYFCARFYYGYWYFDVWGTGTTVTVSS
VL: DIVMTQAAPSVPVTPGESVSISCRSSKSLLRSNGNTYLYWFLQRPGQSPQVLIYRMSNLASGVPDRFSGSGSGTAFTLRISRVEAEDVGVYYCMQHLEYPFTFGAGTKLELK
notes: as for B6
B12: 20C3E8 chimeric mAb (antibody, V domains shown)
VH: QVQLQQSGAELARPGASVKLSCKASGYTFTSYGISWVKQRTGQGLEWIGEIYPRSGNTYYNEKFKGKATLTADKSSSTAYMELRSLTSEDSAVYFCSRLDYGTSPFDYWGQGTTLTVSS
VL: NIVMTQSPKSMSMSVGERVTLSCKASENVGTFVSWYQHKPEQSPKLLIYGASNRYTGVPDRFTGSGSATDFTLTISSVQAEDLADYHCGQSYSYPYTFGGGTKLEIK
notes: as for B6

Positions count from the first letter of the chain named.

For one test, the target named is T1, human CDH17, full length, expressed on …. As to the kind of experiment: flow cytometry, HCT-8 cells.
Take B1: the binding result is listed as “binds”.

Take B2: the binding result is reported as “binds”.

Turning to B3, the binding result is given as “binds”.

Consider B4, for which the binding result is listed as “binds”.

For the molecule B5, the binding result was “binds”.

Another test deals with T2, human CDH16 protein (hCDH16-his, …). Description: ELISA, hCDH16-his coated at 1 ug/mL. A general note: ELISA stands for enzyme-linked immunosorbent assay.
Turning to B6, the binding result is “no binding (tested: titrated from 100 nM)”.

For the molecule B7, the binding result is reported as “no binding (tested: titrated from 100 nM)”.

B8: the binding result is on record as “no binding (tested: titrated from 100 nM)”.

B9: the binding result is “no binding (tested: titrated from 100 nM)”.

Regarding B10, the binding result is “no binding (tested: titrated from 100 nM)”.

As for B11, the binding result is given as “no binding (tested: titrated from 100 nM)”.

Regarding B12, the binding result was “no binding (tested: titrated from 100 nM)”.

The next test addresses T1, human CDH17, full length, expressed on …. Description: flow cytometry, HEK293-hCDH17 cells. (In general: Flow cytometry measures light scatter and fluorescence of single cells or particles in a stream.)
Consider B6, for which the binding result is “binds”.

Turning to B7, the binding result is on record as “binds”.

In the case of B8, the binding result is given as “binds”.

In the case of B9, the binding result is recorded as “binds”.

Take B10: the binding result is given as “binds”.

Turning to B12, the binding result is given as “binds”.

The next test concerns the target T3, hCDH17-his (full length extracellular …). As to the kind of experiment: SPR (Biacore 8K), antibody captured on Protein A chip, hCDH17-his injected. In general terms: Surface plasmon resonance follows binding to a sensor surface in real time, without labels.
Take B1: the binding result is on record as “binds”.

As for B2, the binding result is given as “binds”.

For the molecule B3, the binding result is on record as “binds”.

As for B6, the binding result is recorded as “binds”.

In the case of B7, the binding result is reported as “binds”.

For the molecule B8, the binding result is “binds”.

Consider B9, for which the binding result was “binds”.

Regarding B10, the binding result is “binds”.

Consider B12, for which the binding result is reported as “binds”.

The values are drawn from EP4806514A2 (Lepu Biopharma Co., Ltd., dated 2025).
